Data from patent US20240116985A1 (published 2024).
Starred links: 1 amine or outer side, 2 acyl side, 3 side chain; linkers in the order of their positions; H or OH if unused. Positions of bridges follow the written chain, without caps; N, C: chain ends. Non-standard residues stand in square brackets, D forms with d. Primed or numbered codes have the meaning given here. B5(4) = 2,2-bis(4-pentenyl)glycine = 2-amino-2-(pent-4-en-1-yl)hept-6-enoic acid (stitching residue), C=CCCCC(CCCC=C)(N[*:1])C(=O)[*:2]; B5(5) = 2,2-bis(4-pentenyl)glycine, 2-amino-2-(pent-4-en-1-yl)hept-6-enoic acid (stitching residue), C=CCCCC(CCCC=C)(N[*:1])C(=O)[*:2]; PyrS2 = (S)-3-amino-1-((pent-4-en-1-yloxy)carbonyl)pyrrolidine-3-carboxylic acid, C=CCCCOC(=O)N1CC[C@@](N[*:1])(C(=O)[*:2])C1; B5 = 2-amino-2-(pent-4-en-1-yl)hept-6-enoic acid, C=CCCCC(CCCC=C)(N[*:1])C(=O)[*:2]; B5(28) = 2,2-bis(4-pentenyl)glycine, C=CCCCC(CCCC=C)(N[*:1])C(=O)[*:2]; Phe(3-CF3) = N[C@@H](Cc1cccc(C(F)(F)F)c1)C(=O)O; Phe(4-CF3) = N[C@@H](Cc1ccc(C(F)(F)F)cc1)C(=O)O; Phe(3-COOH) = N[C@@H](Cc1cccc(C(=O)O)c1)C(=O)O; Phe(2-CF3) = N[C@@H](Cc1ccccc1C(F)(F)F)C(=O)O; Bta = N[C@@H](Cc1csc2ccccc12)C(=O)O; αAllylPro = C=CC[C@@]1(C(=O)O)CCCN1; tBuAla = CC(C)(C)C[C@H](N)C(=O)O; S8 = C=CCCCCCC[C@](C)(N)C(=O)O; Aib = CC(C)(N)C(=O)O

T1: full-length beta-Catenin (Uniprot ID P35222) (Homo sapiens (Human), UniProt P35222 2-781)
T1 construct: The AlphaScreen assay used a Histidine (Nickel Chelate) detection kit, so a His tag is likely, but no tag is described; also called B-Catenin; bCat
T1 sequence: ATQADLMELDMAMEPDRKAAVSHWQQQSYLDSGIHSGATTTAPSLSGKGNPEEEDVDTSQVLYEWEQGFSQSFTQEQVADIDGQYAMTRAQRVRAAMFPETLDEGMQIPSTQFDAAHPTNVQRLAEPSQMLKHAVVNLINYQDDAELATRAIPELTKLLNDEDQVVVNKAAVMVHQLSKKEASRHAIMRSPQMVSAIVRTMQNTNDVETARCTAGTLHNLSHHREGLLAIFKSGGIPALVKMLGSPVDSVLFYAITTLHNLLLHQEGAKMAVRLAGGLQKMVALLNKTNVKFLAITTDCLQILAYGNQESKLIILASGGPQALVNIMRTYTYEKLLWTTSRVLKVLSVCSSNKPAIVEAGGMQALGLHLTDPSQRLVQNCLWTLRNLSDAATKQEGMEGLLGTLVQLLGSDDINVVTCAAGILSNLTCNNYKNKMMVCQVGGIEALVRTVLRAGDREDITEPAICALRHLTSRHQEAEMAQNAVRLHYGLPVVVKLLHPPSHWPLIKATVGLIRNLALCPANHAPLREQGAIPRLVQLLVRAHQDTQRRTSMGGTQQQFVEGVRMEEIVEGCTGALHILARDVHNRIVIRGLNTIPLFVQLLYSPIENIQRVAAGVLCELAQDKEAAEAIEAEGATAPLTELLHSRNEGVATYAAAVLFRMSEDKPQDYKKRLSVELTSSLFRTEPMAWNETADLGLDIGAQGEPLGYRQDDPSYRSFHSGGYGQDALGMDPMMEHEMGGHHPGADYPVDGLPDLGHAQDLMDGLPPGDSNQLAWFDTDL

T2: beta-Catenin (full-length, Uniprot ID P35222) (Homo sapiens (Human), UniProt P35222 1-781)
T2 construct: also called bCat; B-Catenin
T2 sequence: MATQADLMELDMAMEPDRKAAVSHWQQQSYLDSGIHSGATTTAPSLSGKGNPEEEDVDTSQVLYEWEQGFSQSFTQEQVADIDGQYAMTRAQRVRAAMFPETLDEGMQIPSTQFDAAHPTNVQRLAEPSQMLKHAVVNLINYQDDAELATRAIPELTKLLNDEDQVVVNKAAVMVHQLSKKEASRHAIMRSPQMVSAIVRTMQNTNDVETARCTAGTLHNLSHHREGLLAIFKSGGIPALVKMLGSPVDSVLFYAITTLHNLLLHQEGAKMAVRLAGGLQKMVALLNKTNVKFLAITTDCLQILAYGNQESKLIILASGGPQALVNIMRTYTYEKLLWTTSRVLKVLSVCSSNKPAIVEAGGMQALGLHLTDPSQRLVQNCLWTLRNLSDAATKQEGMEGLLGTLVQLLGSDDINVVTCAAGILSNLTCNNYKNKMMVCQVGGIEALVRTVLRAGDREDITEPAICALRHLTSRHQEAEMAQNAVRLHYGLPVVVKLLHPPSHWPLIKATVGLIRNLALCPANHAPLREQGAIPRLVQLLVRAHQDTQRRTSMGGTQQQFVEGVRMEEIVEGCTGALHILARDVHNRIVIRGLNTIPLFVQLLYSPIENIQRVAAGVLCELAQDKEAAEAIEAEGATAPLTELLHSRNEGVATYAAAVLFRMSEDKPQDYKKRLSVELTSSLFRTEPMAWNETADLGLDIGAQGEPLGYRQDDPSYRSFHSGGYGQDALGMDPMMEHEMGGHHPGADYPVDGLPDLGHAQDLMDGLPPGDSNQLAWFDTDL

T3: full-length beta-Catenin (Uniprot ID P35222) (Homo sapiens (Human), UniProt P35222 2-781)
T3 construct: also called B-Catenin; bCat
T3 sequence: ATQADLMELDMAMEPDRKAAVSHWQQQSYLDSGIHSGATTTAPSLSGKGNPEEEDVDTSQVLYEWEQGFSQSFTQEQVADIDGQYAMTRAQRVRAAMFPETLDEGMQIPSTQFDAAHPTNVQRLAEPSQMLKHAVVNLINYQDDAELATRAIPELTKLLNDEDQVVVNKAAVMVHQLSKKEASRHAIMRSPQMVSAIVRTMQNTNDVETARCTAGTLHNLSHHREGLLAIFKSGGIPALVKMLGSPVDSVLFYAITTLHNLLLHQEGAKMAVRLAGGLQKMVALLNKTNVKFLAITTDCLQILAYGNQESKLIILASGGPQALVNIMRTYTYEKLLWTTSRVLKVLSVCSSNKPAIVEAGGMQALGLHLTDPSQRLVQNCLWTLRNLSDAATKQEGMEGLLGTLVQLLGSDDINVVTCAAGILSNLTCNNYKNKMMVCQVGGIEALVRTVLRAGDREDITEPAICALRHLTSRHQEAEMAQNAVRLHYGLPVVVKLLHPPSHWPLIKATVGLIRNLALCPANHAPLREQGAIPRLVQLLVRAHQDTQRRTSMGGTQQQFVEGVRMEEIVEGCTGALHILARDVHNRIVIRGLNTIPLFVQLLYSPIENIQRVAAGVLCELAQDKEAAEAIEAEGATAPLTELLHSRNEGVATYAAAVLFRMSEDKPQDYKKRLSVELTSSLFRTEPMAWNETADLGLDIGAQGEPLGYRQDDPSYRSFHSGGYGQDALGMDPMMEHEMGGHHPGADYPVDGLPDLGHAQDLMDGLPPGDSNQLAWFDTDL

T4: beta-catenin in DLD1 TCF/LEF luciferase reporter cells (UniProt P35222 1-781)
T4 sequence (looked up): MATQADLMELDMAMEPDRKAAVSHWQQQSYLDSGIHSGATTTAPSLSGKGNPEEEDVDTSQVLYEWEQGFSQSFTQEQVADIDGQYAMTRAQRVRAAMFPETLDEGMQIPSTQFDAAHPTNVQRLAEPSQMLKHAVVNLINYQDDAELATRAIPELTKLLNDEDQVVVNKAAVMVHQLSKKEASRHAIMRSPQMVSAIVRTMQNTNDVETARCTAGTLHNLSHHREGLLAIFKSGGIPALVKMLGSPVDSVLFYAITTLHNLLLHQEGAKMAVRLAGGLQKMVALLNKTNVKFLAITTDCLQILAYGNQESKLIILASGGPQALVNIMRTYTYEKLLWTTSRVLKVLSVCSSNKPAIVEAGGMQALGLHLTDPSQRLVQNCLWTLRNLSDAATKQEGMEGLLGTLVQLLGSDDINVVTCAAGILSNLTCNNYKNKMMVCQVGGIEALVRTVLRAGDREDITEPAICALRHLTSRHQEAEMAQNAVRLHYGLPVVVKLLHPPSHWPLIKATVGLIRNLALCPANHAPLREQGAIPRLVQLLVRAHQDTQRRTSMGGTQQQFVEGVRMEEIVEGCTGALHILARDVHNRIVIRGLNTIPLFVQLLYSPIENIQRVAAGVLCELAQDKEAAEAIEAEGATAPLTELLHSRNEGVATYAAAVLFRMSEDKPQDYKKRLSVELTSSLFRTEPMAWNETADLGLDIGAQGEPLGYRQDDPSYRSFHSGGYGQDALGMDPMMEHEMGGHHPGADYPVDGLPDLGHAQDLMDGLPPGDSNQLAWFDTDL


Experiments:
[1] = biological target: T1, full-length beta-Catenin (Uniprot ID …); experiment: fluorescence polarization competition: full-length beta-catenin + 5FAM-TCF4(10-53) probe, peptide titrated
Method: (§1) The plate was incubated protected from light for 60 minutes at 20° C. prior to read. Reads were performed on a CLARIOstar plate reader (BMG Labtech) in duplicate, and data were fitted to a 1:1 binding model with hill slope using an in-house script. All provided concentrations are final concentrations.

[2] = biological target: T1, full-length beta-Catenin (Uniprot ID …); experiment: AlphaScreen competition: full-length beta-catenin + biotin-TCF4(10-53) probe, peptide titrated
Method: as §1, with “Equal volume of the titrated peptide was added to the” for “The”, “and” for “was”, “incubated for 15 minutes at 20° C. Then 4 uL of donor and 4 uL acceptor beads at 10 ug/mL were added to the plate, for a 16 uL reaction pool and” for “incubated”

[3] = biological target: T2, beta-Catenin (full-length, Uniprot ID …); experiment: fluorescence polarization competition: peptide titrated against 10 nM full-length beta-catenin + 10 nM 5FAM-labeled TCF4 residues 10-53 probe
Method: as §1

[4] = biological target: T3, full-length beta-Catenin (Uniprot ID …); experiment: fluorescence polarization competition; 5FAM-TCF4(10-53) probe with full-length beta-catenin
Method: as §1

[5] = biological target: T4, beta-catenin in DLD1 TCF/LEF luciferase …; experiment: cell-based or functional assay

EC50 [1] | EC50 [2] | Binder | other results
5 µM | 1.96 µM | Ac-[αAllylPro]DA[B5(4)]DDAAFV[S8][Phe(4-CF3)]WQ-NH2 (staple 1-4, 4-11, Stapled peptide composition; also called Ac-PL3-Asp-Ala-B5-Asp-Asp-Ala-Ala-Phe-Val-S8-4F3MeF-Trp-Gln-NH2) [I-255] | –
– | – | XDAXDDAAFVXFWQ (not fully specified; N-terminal Ac; PL3 at position 1; B5 at position 4; S8 at position 11; 4F3MeF at position 12; C-terminal NH2; stapled by olefin metathesis (PL3-B5 and B5-S8), These are separate isomer compositions) [I-254: Ac-PL3-Asp-Ala-B5-Asp-Asp-Ala-Ala-Phe-Val-S8-4F3MeF-Trp-Gln-NH2] | IC50 [3]: 5 µM
5 µM | 1.2 µM | Ac-[αAllylPro]DA[B5]DDAAFV[S8][Phe(3-CF3)]WQ-NH2 (staple 1-4, 4-11, Stapled peptide composition; also called Ac-PL3-Asp-Ala-B5-Asp-Asp-Ala-Ala-Phe-Val-S8-3F3MeF-Trp-Gln-NH2) [I-251] | –
5 µM | 1.2 µM | Ac-[αAllylPro]DA[B5]DDAAFV[S8][Phe(3-CF3)]WQ-NH2 (staple 1-4, 4-11, Stapled peptide composition; also called Ac-PL3-Asp-Ala-B5-Asp-Asp-Ala-Ala-Phe-Val-S8-3F3MeF-Trp-Gln-NH2) [I-250] | –
– | – | Ac-[αAllylPro]DA[B5(28)]DEAAFV[S8]FW[Aib]-NH2 (staple 1-4, 4-11, Stitched (two-staple) peptide composition) [I-134] | EC50 [4]: 2.7 µM
– | – | Ac-[αAllylPro]D[tBuAla][B5(5)]D[Phe(3-COOH)]AAFL[PyrS2][Phe(2-CF3)][Bta]QL[dL]-NH2 (staple 1-4, 4-11) [I-2396] | DLD1 4% Abs IC50 [5]: 1.5 µM
– | – | XDAXDDAAFVXFWQ (not fully specified; N-terminal Ac; PL3 at position 1; B5 at position 4; S8 at position 11; 34FF at position 12; C-terminal NH2; stapled by olefin metathesis (PL3-B5 and B5-S8), It is the earlier-eluting isomer composition) [I-262: Ac-PL3-Asp-Ala-B5-Asp-Asp-Ala-Ala-Phe-Val-S8-34FF-Trp-Gln-NH2] | IC50 [3]: 5 µM
